From the DeepSol protein solubility set

Test: soluble on expression in E. coli; label from the status in PepcDB or PDB records

Sequence | soluble on expression in E. coli
MTQPFNFEQALKDLQSGKSLTGKDSILGPLIKQLTEAALQAELEQHLAHDPQPNRKNGKTPKTIKHPSGNFELDAPRDRNGTFEPQLIKKNQTTLTDEIERKVLSMFSIGMSYRDINQHVEDMYGLNVSNATVSAITDKLIPELKAWQQRPLDSHYPIVWLDAIHYKVKEDGRYVSKAVYTLLALNMKGKKEILGLHLSENEGANYWLSVLADLNNRGVKDILIACVDGLTGFPEAIASIFPHTETQLCVIHQIRNSMKYVASKNQKAFMADLKPVYRAVSKEAAEMALDELEAKWGDAYPLVINSWRRKWHNLSHYFKYPEHIRKVIYTTNAVEAVHRQFRKLTKTKGAFPNENSLLKLLYAGILNASDKWTMPIHNWSLCLSQLAIYFEGRLDSVLEI | not soluble
MTQTASLFLQDSYREECLARITDVVEDGLLLDQTVFYPQGGGQAGDSGWLTLADGTRLRIADTRKGTEAGAGRDAILHIPAEGQATVLRAMKPGEVVLAQIDWVRRYRHMRLHTAAHMLCAVLPYPVNGCSITDEHARLDFVTSEPLSREAIDSALAAMVEAAHPVSIDTMSDDALRARPDLVRTMSVQPPMGAGQVRLVSIKDTDLQPCGGTHVANTEEVGVVRVSKMEKKSARTRRVVLVLG | not soluble
MTQVSIIVPVLNEESTIHSAVSRLCRDFPDCELIVVDGGSTDATAELAALHATVIGSERGRAKQMNEGARHASGGILWFIHADTAIEPEALGQIRSVLADPAVVAGGLTLRFDRRTPALNYLAWTSNARARRLHHIFGDQAMFIRRTAFDELGGFPDLAIMEDLEMSRRLHRRGPLRLLPATSTASSRRLTAHGTWRMIAFMQYLKLLYFAGADPEAIRARYTAGPRLFPKRNPATLEHHHHHH | not soluble
MTRQRFISDDHYKFQSEHFIRLHGCDISLFPLEIKGKESISDVYSYEIKCFSRTDHNSLDKLHGTRLSCEIGEQYNSLPARFIHGVVTKVIYNYDNSMQHTCIIILQPEIAELASGKRTRVWSNIKPSDIVSTILEDSLFSPPQVILYKEQNLLEYKIQYQESDLDFINRILSEAGIYYFFVHNRDKHIMTLADDPASHPKASYDKLEHLPCENLKESRHGYIREWSFTESLKCPSVTLSGYNESNVSEITIKSESKLTDVKPSKGVYEDIIPERKRELIKKRSEALIASCDSELKIWSGKTDSWWLSCGECFSLDKQDYRITSLYLNAVNNDNEHAGLCYCDLCASDNKSSLNFSREFKTPIIPGVLLARVVGPDSEEYYTDDNGRVKISFLWGEKSAAGTDKTSCWVRVSQVWSGEGFGSQFIPRIGSEVLVSFIQGNPDYPVIVGTVYNGQNTSPFSLPENNCKSGFITRSVKNGKKGEGHQLVFDDKEGEEKVIVTSSGDSLLTVKKDMISTINRSMSLTIAEGRNAEIKRGNDRLVLKEGDLHNDVHGNINIKVSNGDYNLKVSGGSGSLITDKNLTLESTQSIKIKVGANEITISTSGIDIKAAKITIEGQVSAEVKAATLKFESQAISEVKGTMLTLQGSAMTQIKGGIVNIG | not soluble
MTSGKIHNPLNRQHSELRSKNVSLSNGDPFTIALFGVDSNAQRKSENDGERSDTIMLLSINPKKQTTEIVSVPRDTQAEIVGKGTTEKINHAYAYGGPTMAVKSLEKLMNVPIDHYATVDMDGLHDMIDALGGVNVTSNDTFTTKGTNFVKGQSTHVDGDTAMAFIRSRKEEGAGGDFGRQERQQLILQAMANKMTSTSALTHFPSLINQIQKNVKTDLTLNDMNDIRKNYKNANTTVNRHQLEGQGGIQDDGLWYFIPNDDSKQSATEILNNNLQNLEHHHHHH | soluble
MTSMHTSVNGCKFCDIVKNKKELQLKENKSCVVINDIKPKAKNHYLVLSKQHIAKPTDLTVADVPLLEEMEKTGRELLREHLKKKGEADTVEDMLRIGFHLPPLLSVHHLHMHIIYPISDMGLISRKLTFRPGKVFKPARELIDQLKEDAGVPDPLEGNPAKDDVHEKIPAQVIS | not soluble
MTSNFREYLFAPDHPRLAELRELDAYAYRTVARRPGTFTGDLVAGWTPLYKNEFRGVTEDGTLREDVHCLEPARAGEAAPVPEMVAAAADLLAGLDDESRERIRYRVDAPEWQTWANPEFMQFDTGIRLEFQSEDVRRKALRLMASSLSPQGYELARNMMLINGFLGEVVGLPGILNEFSYNMAIYGTPHETRPWGWQVFGHHLAVNCFVVDGRMVISPLFLGAEPNEIDEGEHAGVTSFGTRIELGLALMAELTPEQRCAATVYEQMVDPAMPPGRVHPGDERHLAGAFQDNRQIPFEGVRVADLSCRAQELVLEIVEQFVALLPDGPRAARMREVRKMLSQTWFSWIGGHRPGDVFYYRVQSPVIIAELDHHCGVFLDYDTPKPFHIHTVVRTPHGNDYGRAYLRQWEQGHRLEHHHHHH | soluble
MTSQRCRRRYFMMIRERIEEKLRAAFQPVFLEVVDESYRHNVPAGSESHFKVVLVSDRFTGERFLNRHRMIYSTLAEELSTTVHALALHTYTIKEWEGLQDTVFASPPCRGAGSIALEHHHHHH | not soluble
MTSQTAFDLIFRNTLLRSSAAPVDIGVKGGRIAAIEPGLTCEAVEVDVGGHLALPGFVDTHIHLDKACLLGRCGHNHGSVSEAIRAVAGMKKDFTVEDVYARGARVLERAIVHGTTRMRTHVEIDPRIGLRGFEAVKALKRDYAWAIDLSLCVFPQEGLTNDPGAEDLLIQALRDGGETIGGCPYMDTDPNTHLERIFNLAQEFDVDVDLHLDFDLDPSWWHLDEVCRQTERRNYGGRVAVGHATKLSALPPEPLKAATAQLAKAGVAVTVLPATDLYLMGREATHNAPRGLTLAHKLAGDGVLCSVATNNVLNPFTPFGDASLLRMANFYANVAHASVSDFDICLDLVTELPARLMNLGDYGIKVGNPADLIVLDTQDSRFAIAELPDVMMGFKAGRQTFARQRPTLFSPGR | soluble
MTSRVDPANPGSELDSAIRDTLTYSNSPVPNALLTASESGFLDAAGIELDVLSGQQGTVHFTYDQPAYTRFGGEIPPLLSEGLRAPGRTRLLGITPLLGRQGFFVRDDSPITAAADLAGRRIGVSASAIRILRGQLGDYLELDPWRQTLVALGSWEARALLHTLEHGELGVDDVELVPISSPGVDVPAEQLEESATVKGADLFPDVARGQAAVLASGDVDALYSWLPWAGELQATGARPVVDLGLDERNAYASVWTVSSGLVRQRPGLVQRLVDAAVDAGLWARDHSDAVTSLHAANLGVSTGAVGQGFGADFQQRLVPRLDHDALALLERTQQFLLTNNLLQEPVALDQWAAPEFLNNSLNRHR | soluble
MTSTFLYKFYPNYNAKNCGDRMPKLMLALDVLDRDRALKIVEDVKDYVDAIKVGYPLVLSTGTEIIKEIKKLCNKEVIADFKVADIPATNEKIAKITLKYADGIIVHGFVGEDSVKAVQDVAKKLNKKVIMVTEMSHPGAVQFLQPIADKLSEMAKKLKVDAIVAPSTRPERLKEIKEIAELPVITPGVGAQGGKIEDILNILDENDYVIVGRAIYQSQNPKEEAKKYKEMLNK | soluble
MTSTRHHRGARRALRHLTTTTAHARRAFSPADLRQLEAAVREGERRHRGEVRIVIEASLPVRDAWAGVTPRQRARTLFGLLEVWNTHEHVGVLLYLNLADHAVEILADRGIAARVEPHAWRAICETITHGFAQGVAIGPVLEALGQIHAVLAAHFPSDGAPRANELADKPLVLLEHHHHHH | soluble
MTSVLDPDRALEDEAKDKFGFVGIAKQLAPPIIEAAKGEGMVIGLEGRWGSGKTSLLNFLRAELQASKKSGIHTITIAPWLNGDTSSLVLSLLEPMAAVLKQKEDELAESYGEGQSATKERVAEVGRLLRAYGPKTARRIASLANVAGYVLPGAQAIGGALAASASAADEIFDVGPTPSELKQELAVKIQELNVGFIVILDDLDRLEPEQAVEVVRLVRSVADFPKVVYLMCYDREVLSEALKTGLKVSDGDLFLQKIVQLTFNIPLPEPFDLRTQFRNEAKAIYFEATGVDLDGAILHDLTYAVDREGMGLSTPREVKLALNSIRFVFSQVKDDVYFPDLCRLHLIKTTNYKLYKWLEIYLSVRSVLVTGDATVSEDEKTKMGEELKMLLPASGPGSVHSIWSLARFIPGVVDTEKVSERVFNAINSSAISEAVRLKRLGSPLHYRFYFALTGPKTVMPDEDFNAILELARNDIDQLESRLAAETMKRRDSGRTWFEHVLDRLDDDCISSLDESQLSGILHALSGMMDIAMKEDGEVRSFALSLDGIANIVAKRCLVRLRELNPEKQANTVRSMAQDGKAINWLVGKFFRSQLFNHGKVGERAERPEQWEISEDLLDDIIEILRKRLSEQDIKNLIPNLPNVSAYLYGWMNLTDDDQAKNWVQEYSESDEGFLDILNHLRGWAMSDKVYYPLSEKTVSSFLDWNEVKTRLDGMQLEHHHHHH | not soluble
MTTAHISGDWRTRYQHVTSFYFKTNHKVWCKVILSLLHTHIPMIIFIDMKGVNMDLIIQTFPLDGKTLYYVQCPVCKNNRILNSGANVSRIISDDTFRKLCGCTCDVKPATSKVEAPKQVKKAAVKKEAAPKRTGKVLTAVINGKEMTVKEIAEAYDISTSTVRQRINAGKPESEIIAPTKKK | not soluble
MTTHRRRPKHDPKESEQEILNAAKQFLNERPFRELTVDEVMRRTGLKRPAFYVHFRDKHDLALRLVQAIGQELFGIADRWLEGDNPQEDLRRALVGLVEVYMKHSHVLRAFAEAASGDERVNSIYRAFVQEFISAAAQHIREEQATGQIQKDIDIDETARALIWLEERYLSDVFGRMPPADPEVVIRVLQNIWISTLYGSN | soluble
MTTLYSIQEKYQQLLNLAEQLDPEALKDTLESIEDELETKAENVAFVIKELEGQSLILDVEIKRLSERKNTINNNVKRLKQSLHDAMLVANKQKIKTNLFTLDIRKNPHSVFVEDESKLINYLVEQPKKLDKTKLKDDLKKGIDVPGAVLVQTERLQIK | not soluble
MTTNKDHFMAKIQLVAQANLPTEYGIFKMVGFEFPDTKKEHVALVMGDISNADEPVLARIHSECLTGDALHSLKCDCGFQLATALKQIQEEGRGVLIYHREEGRGIGLINKIRAYSLQDKGMDTIEANLALGFKADERNFEVCADMFELLGVKKVRLMTNNPEKVETMKKAGINVVERVPLNVGENRYNTKYLDTKAKKMGHYIVHNNDEQHLMTCPHCQEEIILEHHHHHH | soluble
MTTPTFDINAAIQALREGKDLTGKDGILTPLIKQLTEAALAAELDSHLTSTEGANRKNGKTTKTIKSPLGNFELNTPRDRAGTFEPQLVKKHQTQLTDEMERKIIGLFSLGSSYQDIRAHIEDMYGMSVSNGTVNAITDKLLPELQAWRERELEPLYPVIWLDAIHYKIKENGRFISKAVYTILALNVDGKKELLGLYLSDNEGAHHWLSVLTDLYNRGVKDILIACVDGLKGFPEAIATIYPQTEVQLCVIHQIRNSIKYVASKHQKAFMADLKCVYKAATLNAAEMALDELETKWGDKYPVVIKSWRNKWALLSVYFKYPDYVRTAIYTTNAVEAVHRQFRKLAKTKGGFANENSLLKLLYAGILKASERWTHP | soluble
MTTQNELLNRIAELETKVAFQDNVIEELNQVLIHHQFVLDKLQTQVRHFANKFKNIQSSNVASQAEETPPPHY | soluble
MTTRKPFIICDFDGTITMNDNIINIMKTFAPPEWMALKDGVLSKTLSIKEGVGRMFGLLPSSLKEEITSFVLEDAKIREGFREFVAFINEHEIPFYVISGGMDFFVYPLLEGIVEKDRIYCNHASFDNDYIHIDWPHSCKGTCSNQCGCCKPSVIHELSEPNQYIIMIGDSVTDVEAAKLSDLCFARDYLLNECREQNLNHLPYQDFYEIRKEIENVKEVQEWLQNKNAGESSLKLEHHHHHH | soluble
